Laboratory results reported in patent publication US20090074722A1, “Products and methods for treating PTP lar diseases” (MAX-PLANCK-GESELLSCHAFT ZUR, priority 1999, published 2009).

Biological target: T1, β-catenin (Homo sapiens, UniProt P35222)
T1 construct: expressed in transfected cells; host or cells: human embryonic kidney 293 cells, transient, pervanadate-treated, used as lysate; the GST-PTP LARi partner was made in E. coli
T1 sequence (P35222 2-781): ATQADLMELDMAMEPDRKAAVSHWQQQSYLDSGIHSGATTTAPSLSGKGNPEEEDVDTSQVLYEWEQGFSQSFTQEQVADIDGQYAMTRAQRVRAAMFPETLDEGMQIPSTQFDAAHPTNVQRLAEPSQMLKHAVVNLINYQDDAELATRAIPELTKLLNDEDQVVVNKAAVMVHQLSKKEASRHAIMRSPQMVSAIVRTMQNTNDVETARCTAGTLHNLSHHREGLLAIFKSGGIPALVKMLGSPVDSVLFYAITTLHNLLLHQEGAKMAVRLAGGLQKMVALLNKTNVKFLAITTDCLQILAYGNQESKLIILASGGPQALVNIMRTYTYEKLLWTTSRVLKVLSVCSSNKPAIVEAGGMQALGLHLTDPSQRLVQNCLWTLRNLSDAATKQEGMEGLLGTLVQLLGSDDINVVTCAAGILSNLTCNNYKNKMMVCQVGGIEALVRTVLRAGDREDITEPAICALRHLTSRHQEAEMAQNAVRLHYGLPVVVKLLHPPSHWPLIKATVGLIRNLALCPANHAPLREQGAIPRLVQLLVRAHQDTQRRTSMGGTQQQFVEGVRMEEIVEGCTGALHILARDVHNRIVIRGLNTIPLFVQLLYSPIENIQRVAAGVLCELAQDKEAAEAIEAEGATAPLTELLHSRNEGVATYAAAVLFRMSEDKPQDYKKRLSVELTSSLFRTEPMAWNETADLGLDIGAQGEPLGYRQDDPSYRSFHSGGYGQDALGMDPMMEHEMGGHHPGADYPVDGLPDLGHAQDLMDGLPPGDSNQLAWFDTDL
Test: In vitro binding assay (GST pull-down), β-catenin
Conditions: lysates of pervanadate treated 293 cells overexpressing β-catenin
Description: After 24 h of serum starvation, the cells were stimulated with pervanadate for 10 minutes before lysis. Equal amounts of lysats were incubated with the GST-PTP LAR cytoplasmic fusion protein (GST-PTP LARi) or a threefold molar excess of GST. Lysates of control vector transfected 293 cells were incubated with the GST-PTP LAR cytoplasmic fusion protein (GST-PTP LARi). Complexes were immobilized on glutathione-sepharose, and precipitates were separated by SDS-PAGE. Bound proteins were analyzed by Western blotting with an anti-β-catenin antibody (left) or an antibody against plakoglobin (right). Arrows indicate the proteins of interest. Molecular mass standards in kilodaltons are shown on the left. […]
To investigate the potential association of PTP LAR with the cadherin/catenin-complex in intact cells, subconfluent human MCF7 cells were stimulated with EGF, were lysed, and were immunoprecipitated with antibodies either against PTP LAR or the cadherin/catenin-complex. Western blotting analysis with specific antibodies to β-catenin and E-cadherin (FIG. 5A) or plakoglobin and E-cadherin (FIG. 5B) detected these proteins in anti-human PTP LAR immunoprecipitates with the monoclonal antibody 11.1A against the extracellular domain of human PTP LAR and vice versa. […]

association with β-catenin: associate specifically
B1: GST-PTP LAR cytoplasmic: GST fusion protein comprising the entire cytoplasmic domain (amino acids 1259-1881) of human PTP LAR (protein)
chain: PEMLWVTGPVLAVILIILIVIAILLFKRKRTHSPSSKDEQSIGLKDSLLAHSSDPVEMRRLNYQTPGMRDHPPIPITDLADNIERLKANDGLKFSQEYESIDPGQQFTWENSNLEVNKPKNRYANVIAYDHSRVILTSIDGVPGSDYINANYIDGYRKQNAYIATQGPLPETMGDFWRMVWEQRTATVVMMTRLEEKSRVKCDQYWPARGTETCGLIQVTLLDTVELATYTVRTFALHKSGSSEKRELRQFQFMAWPDHGVPEYPTPILAFLRRVKACNPLDAGPMVVHCSAGVGRTGCFIVIDAMLERMKHEKTVDIYGHVTCMRSQRNYMVQTEDQYVFIHEALLEAATCGHTEVPARNLYAHIQKLGQVPPGESVTAMELEFKLLASSKAHTSRFISANLPCNKFKNRLVNIMPYELTRVCLQPIRGVEGSDYINASFLDGYRQQKAYIATQGPLAESTEDFWRMLWEHNSTIIVMLTKLREMGREKCHQYWPAERSARYQYFVVDPMAEYNMPQYILREFKVTDARDGQSRTIRQFQFTDWPEQGVPKTGEGFIDFIGQVHKTKEQFGQDGPITVHCSAGVGRTGVFITLSIVLERMRYEGVVDMFQTVKTLRTQRPAM
